According to patent publication US20050070001A1, “Xylosyltransferase and isoforms thereof” (priority 1999, published 2005):

Key:
recombinant XT-I = target: T1, recombinant XT-I (Homo sapiens, UniProt Q86Y38); test: XT activity assay of recombinant XT-I expressed in CHO-K1 cells with different acceptors and with heparin; format: biochemical; conditions: for XT Activitiy pCG227-XT: recombinant XT-I from CHO-K1 cells, immunoprecipitated on beads, named acceptor, without heparin, n.d. = not detected (detection limit 20 μU/l)
T1 construct: polyhistidine leader of vector pcDNA4/HisMax-TOPO (own knowledge of the vector); made in house; host or cells: CHO-K1, transient transfection with pCG227-XT-I
T1 sequence (Q86Y38 148-959): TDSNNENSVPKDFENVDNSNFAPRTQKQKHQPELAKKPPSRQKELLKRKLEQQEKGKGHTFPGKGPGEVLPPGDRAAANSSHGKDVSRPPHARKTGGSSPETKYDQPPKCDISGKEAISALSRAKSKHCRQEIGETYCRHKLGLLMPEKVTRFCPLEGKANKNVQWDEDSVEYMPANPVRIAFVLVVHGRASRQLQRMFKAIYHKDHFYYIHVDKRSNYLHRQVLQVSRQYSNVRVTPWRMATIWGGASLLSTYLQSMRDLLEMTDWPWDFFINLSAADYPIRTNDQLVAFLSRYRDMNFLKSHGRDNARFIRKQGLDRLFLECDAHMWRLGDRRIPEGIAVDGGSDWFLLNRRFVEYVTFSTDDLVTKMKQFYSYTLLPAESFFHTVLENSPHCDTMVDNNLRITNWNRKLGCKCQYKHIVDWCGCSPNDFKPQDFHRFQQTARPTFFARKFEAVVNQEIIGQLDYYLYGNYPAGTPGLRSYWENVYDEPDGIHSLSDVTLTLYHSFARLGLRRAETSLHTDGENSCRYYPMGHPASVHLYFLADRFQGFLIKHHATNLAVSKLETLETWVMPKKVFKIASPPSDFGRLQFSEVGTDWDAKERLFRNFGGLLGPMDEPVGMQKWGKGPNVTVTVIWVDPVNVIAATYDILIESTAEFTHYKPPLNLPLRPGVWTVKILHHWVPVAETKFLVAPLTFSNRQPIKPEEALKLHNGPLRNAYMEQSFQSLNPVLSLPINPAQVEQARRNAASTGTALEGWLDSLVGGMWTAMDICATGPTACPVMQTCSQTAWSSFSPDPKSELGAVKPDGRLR
Excerpt: The degenerate primers PFF-sense and Lysc-inv1 which were designed upon the amino acid sequence of proteolytic cleaved peptides of human XT-I were used in a PCR reaction with first strand cDNA of placenta poly(A)^+ mRNA as template. […] To clone the complete coding sequence of the novel cDNA, the RACE strategy was employed. The cDNA finally obtained was 3608 bp (FIG. 8A) and contained a single open reading frame encoding a protein of 865 amino acids with a molecular mass of 97.000. The 3′-untranslated region is 850 bp and a 5′-untranslated region of 149 bp was identified with an in-frame stop codon upstream of the ATG codon. […] No detectable XT activity was recovered by the affinity purification from a control transfection sample. The substrate specificity of the recombinant XT-I was similar to that of the XT-I isolated from human body fluids and cell culture supernatants.
Determination of XT activity. Determination of XT activity is based on the incorporation of [14C]-D-xylose into the recombinant bikunin according to a previously described method (Brinkmann et al., 1997, J. Biol. Chem., 272, 11171-11175). For analysis of the substrate specificity of the recombinant xylosyltransferases synthetic peptides containing the XT recognition sequence were used as acceptor. The reaction mixture for the assay contained, in a total volume of 100 μl: 50 μl of XT solution, 25 mM 4-morpholineethanesulfonic acid (pH 6.5), 25 mM KCl, 5 mM KF, 5 MM MgCl2, 5 mM MnCl2, 1.0 μM UDP-[^14C]-D-xylose, and 1.5 μM of the synthetic peptides. After incubation for 75 min at 37° C., the reaction mixtures were placed on discs (25 mm diameter) of Immobilon-AV membrane, which immobilizes even small peptides by covalent links (Pfund & Bourdage, 1990, Mol. Immunol. 27, 495-502), and allowed to dry. It was then washed for 10 min with 10% trichloroacetic acid and three times with 5% trichloroacetic acid solution. Incorporated radioactivity was determined by liquid scintillation counting.
Transfection and transient expression of XT. For construction of a eukaryotic expression vector a DNA fragment including the known coding sequence of XT-I cDNA was amplified by PCR using XT_Exp1L 5′-[…]-3′ and XT_Exp3U 5′-[…]-3′ as primers and placenta first-strand cDNA (Clontech) as template. The 2450 bp fragment obtained was cloned into the vector pcDNA4/HisMax-TOPO (Invitrogen) resulting in the fusion of XT-I to the Xpress epitope. The plasmid pCG227-XT-I was then transiently transfected into CHO-K1 cells. The coding region of the XT-II cDNA was amplified by PCR using the primers AB_Exp9U 5′-AAAGGAAGGCAGAGGAAGC-3′ and AB_Exp3L 5′-ACCCCTCCACTGT-CTGTAAG-3′ and placenta first-strand cDNA as template. The obtained 2440 bp DNA fragment was cloned into the expression vector pcDNA4/HisMax-TOPO resulting in the fusion of XT-II to the aminoterminal Xpress epitope. The plasmid termed pCG226-XT-II was transiently transfected into CHO-K1 cells. 2×10^5 cells precultured for 1 day in a 35 mm diameter cell culture dish were transfected with 2 μg of plasmid DNA and 6 μl of Fugene 6 transfection reagent (Roche, Mannheim, Germany). For determination of transfection efficiency CHO-K1 cells were transfected with 2 μg of the control plasmid pcDNA4/HisMax-TOPO-lacZ. 48 h after transfection the cell culture medium was harvested. Protein G agarose beads (Sigma, Deisenhofen, Germany) and mouse anti-Xpress monoclonal antibody (Invitrogen) were added to the cell culture supernatant and incubated at 4° C. for 1 h. […]

XT [1] = test: Effect of protamine chloride added to the XT assay solution; format: biochemical, human
Excerpt: UDP-D-xylose: proteoglycan core protein β-D-xylosyltransferase can be isolated and purified from JAR choriocarcinoma cell culture. The isolated protein according to the invention is a single stranded polypeptide with a molecular weight of 120.000. The protein was enzymatically cleaved and eleven peptide fragments were sequenced by Edman degradation (see Examples). XT is present only in very small amounts in animal tissues but unlike other glycosyltransferases, more than 90% of XT is enriched in the medium of cultured cells. The highest secretion of XT activity was measured in JAR choriocarcinoma cell culture, in which sternal cartilage chondrocytes and 21 different human cell lines were examined. To produce a highly enriched XT solution for the isolation of XT, JAR choriocarcinoma cells were adapted to hollow fiber culture conditions using a novel bioreactor (TECNOMOUSE) and Ultradoma-PF medium without serum addition as nutrient. For purification of XT a combination of classic separation methods and new affinity matrices was employed. Therefore, a heparin matrix was used as an affinity ligand for the XT. […]
Determination of XT activity. […] Incorporated radioactivity was determined by liquid scintillation counting.

[2] = Storage stability of purified XT enzyme activity; format: physicochemical; conditions: purified XT after protamine affinity chromatography, stored at −75° C.
Protocol: Step 4: Affinity chromatography on protamine chloride The product of step 3 was desalted and concentrated using dia- and ultrafiltration. […] Additional proteins were eluted with buffer A containing low NaCl concentrations. Enzyme activity was eluted at approximately 0.15 M NaCl (FIG. 1C). The enzyme activity was stable for at least 6 months at −75° C.
Step 4: Affinity chromatography on protanine chloride—XT-containing solution from step 3 was desalted as described above and concentrated to 5 ml by ultrafiltration with YM1 cellulose membranes. The ultrafiltration product was passed through a 0.2 μm filter. 100 μl of the filtrate was loaded onto a protamine chloride—POROS column (4.6×50 mm) equilibrated with buffer A. The flow rate was 10 ml/min. The column was washed with 10.0 ml of buffer A, and the adsorbed fraction was eluted with the same buffer containing NaCl by a stepwise increase of the NaCl concentration: 6.6 ml buffer A/0.04 M NaCl; 6.6 ml buffer A/0,06 M NaCl; 6.6 ml buffer A/0.23 M NaCl followed by a linear gradient of 0.23-1.20 M NaCl (4.2 ml) in buffer A. Fractions of 6.0 ml were collected, assayed for XT activity and evaluated by SDS-PAGE. Cyclic chromatography was repeated 50 times. The purified enzyme was collected, concentrated to 1.0 ml using ultrafiltration techniques and stored at −75° C.

XT [3] = conditions: cited from earlier work

## TENEGSGLTNIK [L-APP peptide TENEGSGLTNIK, synthetic L-APP homologous peptide used as XT acceptor]
Recombinant XT-I
  XT Activitiy pCG227-XT: 492 μU/l

## protamine chloride
XT [1]
  effect on XT activity: increased XT activity

## SENEGSGMAEQK [L-APLP2 peptide SENEGSGMAEQK, synthetic L-APLP2 homologous peptide used as XT acceptor]
Recombinant XT-I
  XT Activitiy pCG227-XT: 515 μU/l

## heparin
Recombinant XT-I; addition of 250 U of heparin
  inhibition of enzyme activity of recombinantly expressed XT-I: completely inhibited

## QEEGSGGGGQK [Bikunin peptide QEEGSGGGGQK, synthetic bikunin homologous peptide used as XT acceptor]
Recombinant XT-I
  XT Activitiy pCG227-XT: 463 μU/l

B1: UDP-D-xylose:proteoglycan core protein β-D-xylosyltransferase (protein, UniProt Q86Y38 1-959, looked up)
Xylosyltransferase 1: MVAAPCARRLARRSHSALLAALTVLLLQTLVVWNFSSLDSGAGERRGGAAVGGGEQPPPAPAPRRERRDLPAEPAAARGGGGGGGGGGGGRGPQARARGGGPGEPRGQQPASRGALPARALDPHPSPLITLETQDGYFSHRPKEKVRTDSNNENSVPKDFENVDNSNFAPRTQKQKHQPELAKKPPSRQKELLKRKLEQQEKGKGHTFPGKGPGEVLPPGDRAAANSSHGKDVSRPPHARKTGGSSPETKYDQPPKCDISGKEAISALSRAKSKHCRQEIGETYCRHKLGLLMPEKVTRFCPLEGKANKNVQWDEDSVEYMPANPVRIAFVLVVHGRASRQLQRMFKAIYHKDHFYYIHVDKRSNYLHRQVLQVSRQYSNVRVTPWRMATIWGGASLLSTYLQSMRDLLEMTDWPWDFFINLSAADYPIRTNDQLVAFLSRYRDMNFLKSHGRDNARFIRKQGLDRLFLECDAHMWRLGDRRIPEGIAVDGGSDWFLLNRRFVEYVTFSTDDLVTKMKQFYSYTLLPAESFFHTVLENSPHCDTMVDNNLRITNWNRKLGCKCQYKHIVDWCGCSPNDFKPQDFHRFQQTARPTFFARKFEAVVNQEIIGQLDYYLYGNYPAGTPGLRSYWENVYDEPDGIHSLSDVTLTLYHSFARLGLRRAETSLHTDGENSCRYYPMGHPASVHLYFLADRFQGFLIKHHATNLAVSKLETLETWVMPKKVFKIASPPSDFGRLQFSEVGTDWDAKERLFRNFGGLLGPMDEPVGMQKWGKGPNVTVTVIWVDPVNVIAATYDILIESTAEFTHYKPPLNLPLRPGVWTVKILHHWVPVAETKFLVAPLTFSNRQPIKPEEALKLHNGPLRNAYMEQSFQSLNPVLSLPINPAQVEQARRNAASTGTALEGWLDSLVGGMWTAMDICATGPTACPVMQTCSQTAWSSFSPDPKSELGAVKPDGRLR
notes: enzyme (EC 2.4.2.26) purified from JAR choriocarcinoma cell culture supernatant, MW 120.000
[2]
  time for which enzyme activity was stable: at least 6 months

B2: Recombinant bikunin: recombinant bikunin, the inhibitory component of human inter-α-trypsin inhibitor; XT acceptor protein (protein, UniProt P02760 206-352, looked up)
Inter-alpha-trypsin inhibitor …: AVLPQEEEGSGGGQLVTEVTKKEDSCQLGYSAGPCMGMTSRYFYNGTSMACETFQYGGCMGNGNNFVTEKECLQTCRTVAACNLPIVRGPCRAFIQLWAFDAVKGKCVLFPYGGCQGNGNKFYSEKECREYCGVPGDGDEELLRFSN
modifications: Inter-alpha-trypsin inhibitor light chain recombinant
notes: XT acceptor protein
Recombinant XT-I
  XT Activitiy pCG227-XT: 2854 μU/l
XT [3]; enriched XT preparation from conditioned cell culture supernatant of human chondrocytes, read-out: Michaelis-Menten (Km) constant for in vitro xylosylation
  Km: 22 µM
XT [3]; enriched XT preparation from human chondrocytes
  decrease of Km in comparison to deglycosylated core protein from bovine cartilage: 9 fold
